Data published in publication PMC3093367.
Values joined by “and” are separate entries in the source; they are usually repeats but may differ in a detail not shown here. Equal entries are not always repeated.

Experiments:
[1] = target: Rift Valley fever virus nucleoprotein (N), recombinant wild type (Rift Valley fever virus (strain Smithburn)) (UniProt P21700); test: cross-linking
[2] = target: Rift Valley fever virus nucleoprotein (N), recombinant wild type (Rift Valley fever virus (strain Smithburn)) (UniProt P21700); test: crystal structure
[3] = target: T1, RVFV nucleoprotein N (SEC fraction N2) (Rift Valley fever virus (strain …, UniProt D3K5I7 1-245)); test: SPR; RNA immobilized via biotin-NeutrAvidin; SPR (ProteOn XPR36, […]; temperature not stated; conditions: protein: recombinant; tags: N-terminal thioredoxin-His6 tag removed by TEV; label: 3' biotin; single strand
T1 sequence: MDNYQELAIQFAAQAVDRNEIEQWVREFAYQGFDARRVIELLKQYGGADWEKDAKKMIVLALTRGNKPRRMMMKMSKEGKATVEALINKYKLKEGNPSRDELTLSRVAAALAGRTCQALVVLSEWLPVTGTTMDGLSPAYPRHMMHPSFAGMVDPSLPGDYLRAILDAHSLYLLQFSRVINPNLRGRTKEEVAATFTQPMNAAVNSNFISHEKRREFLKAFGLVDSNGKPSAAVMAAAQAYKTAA

Rift Valley fever virus nucleoprotein (N), recombinant wild type, sequence (P21700 whole entry): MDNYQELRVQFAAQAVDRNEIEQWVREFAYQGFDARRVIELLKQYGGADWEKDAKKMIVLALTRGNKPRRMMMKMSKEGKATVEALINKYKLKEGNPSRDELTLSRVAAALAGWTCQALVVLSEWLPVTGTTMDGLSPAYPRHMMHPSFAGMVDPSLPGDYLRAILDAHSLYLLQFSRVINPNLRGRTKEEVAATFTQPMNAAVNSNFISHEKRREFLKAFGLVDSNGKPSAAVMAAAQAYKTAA

Molecule: Rift Valley fever virus nucleoprotein (N), recombinant wild type (from UniProt P21700 1-245) (natural protein)
- stoichiometry N [1]: 2 and 3 and 4
- stoichiometry N [2]: 6

Molecule: GAGUUGUUAAUCUUUUUUUU (ssRNA) [RNA20-3'biotin]
- Kd [3]: 3.8 µM
